Source: publication PMC3514274, “Recombinant sterol esterase from Ophiostoma piceae: an improved biocatalyst expressed in Pichia pastoris” (Microbial Cell Factories, 2012)
Values belong to the molecule of their own block, whether it stands above or below them.

Legend:
[1] = target: recombinant sterol esterase from Ophiostoma piceae expressed in Pichia pastoris (Ophiostoma piceae); assay: AUC; sedimentation velocity; purified protein 200 μg/mL in 25 mM sodium phosphate buffer pH 7.0, aqueous solution without detergent
[2] = target: recombinant sterol esterase from Ophiostoma piceae expressed in Pichia pastoris (Ophiostoma piceae); assay: AUC; sedimentation equilibrium; purified protein 200 μg/mL in 25 mM sodium phosphate buffer pH 7.0, aqueous solution without detergent
[3] = target: deglycosylated recombinant sterol esterase from Ophiostoma piceae (OPE* treated with Endo H in non-denaturing conditions) (Ophiostoma piceae); assay: AUC; sedimentation velocity; purified protein 200 μg/mL in 25 mM sodium phosphate buffer pH 7.0, aqueous solution without detergent
purified protein = substrate: CCCCCCCCCCCCCCCC(=O)Oc1ccc([N+](=O)[O-])cc1; assay: purified protein; type: biochemical, Ophiostoma piceae; conditions: 100 mM sodium phosphate pH 7.0, 0.15 M NaCl, 1% (v/v) Genapol X-100, 25°C
[4] = substrate: CCCCCCCC/C=C\CCCCCCCC(=O)O[C@H]1CC[C@@]2(C)C(=CC[C@H]3[C@@H]4CC[C@H]([C@H](C)CCCC(C)C)[C@@]4(C)CC[C@@H]32)C1; assay: pH-stat titration of released fatty acid; type: biochemical, Ophiostoma piceae; conditions: 1 mM Tris-HCl pH 7.0, 0.15 M NaCl, 5% (v/v) Genapol X-100, 25°C, substrate emulsified in detergent
Source text: (§1) pH-stat titration of released fatty acid on OPE* (recombinant sterol esterase from Ophiostoma piceae)

[5] = substrate: CCCCCCCC/C=C\CCCCCCCC(=O)OCC(COC(=O)CCCCCCC/C=C\CCCCCCCC)OC(=O)CCCCCCC/C=C\CCCCCCCC; assay: pH-stat titration of released fatty acid; type: biochemical, Ophiostoma piceae; conditions: 1 mM Tris-HCl pH 7.0, 0.15 M NaCl, 5% (v/v) Genapol X-100, 25°C, substrate emulsified in detergent
Source text: as §1

[6] = substrate: CCCC(=O)OCC(COC(=O)CCC)OC(=O)CCC; assay: pH-stat titration of released fatty acid; type: biochemical, Ophiostoma piceae; conditions: 1 mM Tris-HCl pH 7.0, 0.15 M NaCl, 5% (v/v) Genapol X-100, 25°C, substrate emulsified in detergent
Source text: as §1

[7] = substrate: CCCC(=O)O[C@H]1CC[C@@]2(C)C(=CC[C@H]3[C@@H]4CC[C@H]([C@H](C)CCCC(C)C)[C@@]4(C)CC[C@@H]32)C1; assay: pH-stat titration of released fatty acid; type: biochemical, Ophiostoma piceae; conditions: 1 mM Tris-HCl pH 7.0, 0.15 M NaCl, 5% (v/v) Genapol X-100, 25°C, substrate emulsified in detergent
Source text: as §1

[8] = substrate: CCCCC/C=C\C/C=C\CCCCCCCC(=O)O[C@H]1CC[C@@]2(C)C(=CC[C@H]3[C@@H]4CC[C@H]([C@H](C)CCCC(C)C)[C@@]4(C)CC[C@@H]32)C1; assay: pH-stat titration of released fatty acid; type: biochemical, Ophiostoma piceae; conditions: 1 mM Tris-HCl pH 7.0, 0.15 M NaCl, 5% (v/v) Genapol X-100, 25°C, substrate emulsified in detergent
Source text: as §1

stoichiometry N [1]: 2
stoichiometry N [2]: 2
Molecule: recombinant sterol esterase from Ophiostoma piceae expressed in Pichia pastoris (enzyme)

stoichiometry N [3]: 2
Molecule: deglycosylated recombinant sterol esterase from Ophiostoma piceae (OPE* treated with Endo H in non-denaturing conditions) (enzyme)

B1: OPE* (recombinant sterol esterase from Ophiostoma piceae) (Ophiostoma piceae) (protein)
chain: TTVNVNYPEGEVVGVSVLGIESFRGVPFAQPPVGNLRLKPPVRYTENIGTKDTTGIGPSCPQMYLSTGNGELLFQLVGNLINIPLFQTATLSSEDCLTLNIQRPAGTTSNSSLPVLFWIFGGGFELGTNQYYDGIDLLTEGISLGEPFIFVAINYRVGGFGFLGGKEIKADGSSNLGLLDQRIALEWVADNIASFGGDPSKVTIWGESAGSISVFDQMALYGGNNKYKGKALFRGGIMNSGSVVPAAPVDGVKAQAIYDHVVSEAGCAGTSDTLACLRTVDYTKFLTAVNSVPGIVSYSSIALSYLPRPDGVVLIDSPEEIVKNKQYAAVPMIIGDQEDEGTLFAVLPNNITSTAKIVQYFQDLYFYNATKEQLTAFVNTYPTDITAGSPFNTGIFNELYPGFKRLAAILGDMTFTLARRAFLQLCSEVNPDVPSWSYLASYDYGFPFLGTFHATDILQVFYGVLPNYASGSIQKYYINFVTTGDPNKGAAVDIQWPQWSAKKNILQIYATKAVIVADNFRAKSYEYLYNNIGIFRI
notes: N-terminus (EA)EAYVEF + TTVNVNYPE (6 or 8 extra residues, mixed); monomer/dimer, monomeric in Genapol X-100
Km (purified protein): 370 ± 30 µM
kcat (purified protein): 1049 ± 28 s⁻¹
kcat/Km (purified protein): 2.88e+06 M⁻¹ s⁻¹
Km [4]: 690 ± 100 µM
kcat [4]: 631 ± 21 s⁻¹
kcat/Km [4]: 918000 M⁻¹ s⁻¹
Km [5]: 710 ± 90 µM
kcat [5]: 1362 ± 41 s⁻¹
kcat/Km [5]: 1.92e+06 M⁻¹ s⁻¹
Km [6]: 5100 ± 300 µM
kcat [6]: 1041 ± 14 s⁻¹
kcat/Km [6]: 204000 M⁻¹ s⁻¹
Km [7]: 1600 ± 200 µM
kcat [7]: 212 ± 7 s⁻¹
kcat/Km [7]: 133000 M⁻¹ s⁻¹
Km [8]: 710 ± 90 µM
kcat [8]: 798 ± 25 s⁻¹
kcat/Km [8]: 1.13e+06 M⁻¹ s⁻¹
